In patent US20200369752A1 (published 2020):

Legend:
[1] = molecular target: human fibrillar (PFF) α-Synuclein (UniProt P37840 1-140); experiment: sandwich ELISA
[2] = molecular target: human monomeric α-Synuclein (UniProt P37840 1-140); experiment: sandwich ELISA

| EC50 [1] [nM] | EC50 [2] [nM] | Binder |
| --- | --- | --- |
| 8.86 | 567 | Syn7031.50.32 (antibody, V domains shown) VH: EVQLVETGGGLVQPKGSLKLSCAASGFTFNTNAMNWVRQAPGKGLEWVVRIRTKSNNYATYYADSVKDRFTISRDDSQSMLYLQMNNLKTEDTAMYYCVRGGTGTGAMDYWGQGTSVTVSS VL: DVVMTQTPLSLPVSLGDQASISCRSSQSLVHSNGNTYLHWCLQKPGQSPKLLIYKVSNRFSGVPDRFSGSGSGTDFTLKISRVEAEDLGVYFCSQSTHVPLTFGAGTKLELK |
| 10.1 | 947 | Syn7009.32.40 (antibody, V domains shown) VH: EVQLVETGGGLVQPKGSLKLSCAASGFTFNTNAMNWVRQAPGKGLEWVVRIRTKSNNYATYYADSVKDRFTISRDDSQSMLYLQMNNLKTEDTAMYYCVRGGTGTGAMDYWGQGTSVTVSS VL: DVVMTQTPLSLPVSLGDQASISCRSSQSLVHSNGNTYLHWCLQKPGQSPKLLIYKVSNRFSGVPDRFSGSGSGTDFTLKISRVEAEDLGVYFCSQSTHVPLTFGAGTKLELK |
| 10.6 | 555 | Syn7012.15.32 (antibody, V domains shown) VH: EVQLVETGGGLVQPKGSLKLSCAASGFTFNTNAMNWVRQAPGKGLEWVVRIRTKSNNYATYYADSVKDRFTISRDDSQSMLYLQMNNLKTEDTAMYYCVRGGTGTGAMDYWGQGTSVTVSS VL: NIMMTQSPSSLAVSAGEKVTMSCKSSQSVLYSSNQKNYLAWYQQKPGQSPKLLIYWASTRESGVPDRFTGSGSGTDFTLTISSVQAEDLAVYYCHQYLSSYTFGGGTKLEIK |
